Source: the supplement of paper PMC10126150
± gives the standard deviation of the averaged measurements.

Tested on: ATP
Assay: switch fluorescence ratio, 500 uM ATP over buffer (Cy3 cluster intensity, sum of 5 cycles each) (fold (ratio)); higher = stronger signal-on switching upon ATP binding; sequences stand for … in TCGTCGGCAGCGTCAGATGTGTATAAGAGACAGTTTTTTTTTTTTTTTTTTTTTTTTT…TC
Settings: aptamer strand: ATP DNA aptamer (quencher-CACCTGGGGGAGTATTGCGGAGGAAGG + anchor), 100 nM annealed; ATP concentration: 500 uM
Method in brief: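 Between each of five buffer/ATP cycles, the flow-cell was stripped with NaOH and re-annealed. Each cycle imaged Cy3-labelled switching-strand clusters, annealed to 100 nM quencher-labelled ATP aptamer on a modified Illumina MiSeq flow-cell, first in selection buffer and then after 15 min with 500 uM ATP at 22 °C. The fluorescence ratio is summed target-cycle over summed buffer-cycle Cy3 intensity per cluster, averaged per switch-domain sequence, with clusters outside 100-1000 RFU excluded.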
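Further: ATP exposure 15 min at 22 °C before imaging.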

| Sequence | switch fluorescence ratio |
| --- | --- |
| CCATTGTGTG | 0.98955 ± 0.00067 |
| CCAATTATGT | 1.01 ± 0.025 |
| AGGGATTGGT | 0.952 ± 0.019 |
| CAAATTTGAT | 1.03 ± 0.027 |
| TTGGACCGTG | 0.973 ± 0.069 |
| GCCGAATTTG | 1.028 ± 0.0068 |
| GGTTAATTAG | 0.9819 ± 0.0077 |
| GCTTTTTTTG | 1.017 ± 0.0079 |
| TCTTGGAGCT | 1.01 ± 0.019 |
| GGAGCAGTTT | 1.12 ± 0.019 |
| TCTTGTATTC | 0.9938 ± 0.0094 |
| TTGTTATCCG | 0.964 ± 0.048 |
| TATATAAAGA | 1.03 ± 0.035 |
| ACTCAAAACG | 1.11 ± 0.09 |
| TTAACTTGAG | 0.9831 ± 0.0047 |
| TTGCAGTGTT | 1.06 ± 0.098 |
| CAGGAGTCGT | 1 ± 0.038 |
| CTCAGGACAG | 0.995 ± 0.044 |
| TAGAGAAAAT | 0.964 ± 0.053 |
| CGGTTGTAAA | 1.02 ± 0.013 |
| CTTTTTATGG | 1.03 ± 0.033 |
| AGTGTAGGGG | 1.02 ± 0.028 |
| GGTGGAGCGG | 1 ± 0.047 |
| CTTCGTGCAT | 1.23 ± 0.069 |
| CTCTTTGCTT | 1 ± 0.006 |

| Sequence | switch fluorescence ratio |
| --- | --- |
| TGGGTGTGGG | 1.02 ± 0.028 |
| TAAATCAGTA | 0.9888 ± 0.0048 |
| CCATTAGGAG | 0.988 ± 0.012 |
| TCAGAAGCGG | 1.3 ± 0.1 |
| CGATTTTGAT | 1.01 ± 0.013 |
| GCAGCACGCG | 1.03 ± 0.031 |
| GACTCGAAAA | 1.17 ± 0.16 |
| CGCTAGGAGG | 0.997 ± 0.036 |
| TCGTGTGGGT | 1.01 ± 0.023 |
| CGGGATGCCT | 1 ± 0.021 |
| GCGATTTATG | 0.9723 ± 0.0051 |
| GAAGTGCGGT | 0.98474 ± 0.00042 |
| TTTCGGCGGT | 1.02 ± 0.021 |
| TAGGTGTTGG | 1.02 ± 0.007 |
| ATATCATTCA | 1.01 ± 0.019 |
| ATATGTTTTT | 0.996 ± 0.018 |
| ACCTTAAGGG | 1.01 ± 0.015 |
| ATGTTTTGAA | 0.9789 ± 0.005 |
| GGCCGGAGGT | 1 ± 0.011 |
| CGCGGGTGGT | 1.02 ± 0.012 |
| GGGGCGGGCA | 1.03 ± 0.043 |
| TCGCGCGGGT | 0.9887 ± 0.008 |
| AAATTATCGG | 1 ± 0.042 |
| TTTTTCTATA | 0.994 ± 0.066 |
| GGAAATGGGG | 0.987 ± 0.11 |

| Sequence | switch fluorescence ratio |
| --- | --- |
| TCAAAGGTAC | 1.04 ± 0.0092 |
| ATTCGCGCTG | 0.994 ± 0.064 |
| TTAGGCTTGG | 1.06 ± 0.067 |
| CGCTAGGGGG | 1.06 ± 0.026 |
| GTCAGGGTAC | 1.09 ± 0.072 |
| TGGGGGCAGG | 1.01 ± 0.047 |
| AGGTAATGCA | 1.012 ± 0.0037 |
| GATATCCGTT | 0.976 ± 0.016 |
| TATTGTCAGA | 1.01 ± 0.019 |
| GTGGGGCTTA | 0.994 ± 0.032 |
| AAGGGGCGAT | 0.98751 ± 0.00098 |
| TTAGCTGTTA | 1 ± 0.016 |
| TGCATGGTGG | 0.995 ± 0.01 |
| ATGTCCGGG | 0.968 ± 0.045 |
| TCGTTGGCTT | 1 ± 0.011 |
| TGCTTTGCCG | 1.09 ± 0.072 |
| GGTGGGTGTT | 0.951 ± 0.017 |
| TTTATTGACT | 1.03 ± 0.013 |
| CGTTTTGCAG | 1.03 ± 0.032 |
| TGGGTTTCCT | 0.987 ± 0.017 |
| AGTAAGGATC | 1 ± 0.031 |
| TTGGTTTTCT | 0.994 ± 0.045 |
| GGGGAATGTA | 0.971 ± 0.022 |
| AATGGGCCGG | 1.013 ± 0.0076 |
| AGGCTGAGCG | 1.01 ± 0.022 |

| Sequence | switch fluorescence ratio |
| --- | --- |
| TCGAGTTTGC | 0.931 ± 0.027 |
| GGGAATACTT | 1 ± 0.038 |
| TTGGATGACA | 1.02 ± 0.031 |
| GACTTTGGCA | 0.983 ± 0.034 |
| ACATTAGGGT | 1.01 ± 0.012 |
| GCAAAAATCT | 1.01 ± 0.046 |
| CGTAAACTTG | 1.02 ± 0.023 |
| AACGCGGTAT | 1.03 ± 0.095 |
| ATCAGGCATT | 1.03 ± 0.011 |
| TTGGATCGCA | 0.985 ± 0.017 |
| CGGGGAAGTC | 1.02 ± 0.044 |
| TTTTACCTTT | 1 ± 0.032 |
| GTTTCTGGTG | 1.13 ± 0.064 |
| TTGGGCGGTG | 1.01 ± 0.018 |
| GTCGGTAAAC | 1.06 ± 0.014 |
| TTGAATATTT | 1 ± 0.014 |
| ACAAAGGTGT | 1.29 ± 0.015 |
| ATGTTAGCGT | 0.9941 ± 0.0048 |
| GGGGAAAAAA | 1.06 ± 0.14 |
| ACTCTAGTTC | 1.063 ± 0.01 |
| AGGAGGCGAG | 0.9905 ± 0.0088 |
| GTTTCGGTTG | 0.972 ± 0.05 |
| TCGGGGGGCG | 0.977 ± 0.034 |
| GGGAAAGGAT | 1.02 ± 0.033 |
| TTTAGAAATC | 1.08 ± 0.16 |
